The supplement of paper PMC5998384

Columns and labels:
[1] = test system: HeLa Kyoto; assay: solubility in G1/S (NP-40 vs SDS abundance) (log2 ratio); higher = more soluble; settings: cell cycle stage: G1/S
[2] = test system: HeLa Kyoto; assay: thermal stability score vs G1/S (z-score of summed log2 fold changes over temperatures); higher = more thermally stable than in G1/S
[3] = test system: HeLa Kyoto; assay: melting temperature (median over replicates), in situ; higher = more thermally stable
[4] = test system: HeLa Kyoto; assay: solubility change mitosis vs G1/S (difference of NP-40 vs SDS log2 ratios) (log2 ratio difference); higher = more soluble in mitosis
[5] = cell cycle stage: early G1 (4.5 h after nocodazole release)
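Wherever melting temperature (median over replicates), in situ is given: HeLa Kyoto cells synchronized by double thymidine or nocodazole block, proteins quantified by TMT10plex mass spectrometry, three independent biological replicates.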
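Wherever solubility change mitosis vs G1/S (difference of NP-40 vs SDS log2 ratios) is given: synchronized HeLa Kyoto cells (double thymidine block for G1/S, nocodazole release for mitosis), protein amounts in NP-40 versus SDS lysates quantified by mass spectrometry, three biological replicates.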
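Wherever solubility in G1/S (NP-40 vs SDS abundance) is given: HeLa Kyoto cells arrested at G1/S by double thymidine block, proteins quantified by TMT10plex mass spectrometry in mild NP-40 versus SDS extracts, three biological replicates.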
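Wherever thermal stability score vs G1/S (z-score of summed log2 fold changes over temperatures) is given: synchronized HeLa Kyoto cells, proteins quantified by TMT10plex mass spectrometry, three biological replicates, mitosis taken 0.5 h after nocodazole release, G1/S directly after double thymidine block.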

| Sequence | solubility in G1/S (log2) [1] | thermal stability score [2, 5] | thermal stability score ([2]; cell cycle stage: mitosis) | melting temperature ([3]; cell cycle stage: G1/S) [°C] | melting temperature ([3]; cell cycle stage: mitosis) [°C] | solubility change mitosis (log2) [4] |
| --- | --- | --- | --- | --- | --- | --- |
| MLSRPKPGESEVDLLHFQSQFLAAGAAPAVQLVKKGNRGGGDANSDRPPLQDHRDVVMLDNLPDLPPALVPSPPKRARPSPGHCLPEDEDPEERLRRHDQHITAVLTKIIERDTSSVAVNLPVPSGVAFPAVFLRSRDTQGKSATSGKRSIFAQEIAARRIAEAKGPSVGEVVPNVGPPEGAVTCETPTPRNQGCQLPGSSHSFQGPNLVTGKGLRDQEAEQEAQTIHEENIARLQAMAPEEILQEQQRLLAQLDPSLVAFLRSHSHTQEQTGETASEEQRPGGPSANVTKEEPLMSAFASEPRKRDKLEPEAPALALPVTPQKEWLHMDTVELEKLHWTQDLPPVRRQQTQERMQARFSLQGELLAPDVDLPTHLGLHHHGEEAERAGYSLQELFHLTRSQVSQQRALALHVLAQVISRAQAGEFGDRLAGSVLSLLLDAGFLFLLRFSLDDRVDGVIATAIRALRALLVAPGDEELLDSTFSWYHGALTFPLMPSQEDKEDEDEDEECPAGKAKRKSPEEESRPPPDLARHDVIKGLLATSLLPRLRYVLEVTYPGPAVVLDILAVLIRLARHSLESATRVLECPRLIETIVREFLPTSWSPVGAGPTPSLYKVPCATAMKLLRVLASAGRNIAARLLSSFDLRSRLCRIIAEAPQELALPPEEAEMLSTEALRLWAVAASYGQGGYLYRELYPVLMRALQVVPRELSTHPPQPLSMQRIASLLTLLTQLTLAAGSTPAETISDSAEASLSATPSLVTWTQVSGLQPLVEPCLRQTLKLLSRPEMWRAVGPVPVACLLFLGAYYQAWSQQPSSCPEDWLQDMQRLSEELLLPLLSQPTLGSLWDSLRHCSLLCNPLSCVPALEAPPSLVSLGCSGGCPRLSLAGSASPFPFLTALLSLLNTLAQIHKGLCGQLAAILAAPGLQNYFLQCVAPGAAPHLTPFSAWALRHEYHLQYLALALAQKAAALQPLPATHAALYHGMALALLSRLLPGSEYLTHELLLSCVFRLEFLPERTSGGPEAADFSDQLSLGSSRVPRCGQGTLLAQACQDLPSIRNCYLTHCSPARASLLASQALHRGELQRVPTLLLPMPTEPLLPTDWPFLPLIRLYHRASDTPSGLSPTDTMGTAMRVLQWVLVLESWRPQALWAVPPAARLARLMCVFLVDSELFRESPVQHLVAALLAQLCQPQVLPNLNLDCRLPGLTSFPDLYANFLDHFEAVSFGDHLFGALVLLPLQRRFSVTLRLALFGEHVGALRALSLPLTQLPVSLECYTVPPEDNLALLQLYFRTLVTGALRPRWCPVLYAVAVAHVNSFIFSQDPQSSDEVKAARRSMLQKTWLLADEGLRQHLLHYKLPNSTLPEGFELYSQLPPLRQHYLQRLTSTVLQNGVSET [RPAP1] | -0.1 | 0.47 | 0.88 | 52.9 | 51.7 | -0.0998 |
| MLSVASRSGPFAPVLSATSRGVAGALRPLVQATVPATPEQPVLDLKRPFLSRESLSGQAVRRPLVASVGLNVPASVCYSHTDIKVPDFSEYRRLEVLDSTKSSRESSEARKGFSYLVTGVTTVGVAYAAKNAVTQFVSSMSASADVLALAKIEIKLSDIPEGKNMAFKWRGKPLFVRHRTQKEIEQEAAVELSQLRDPQHDLDRVKKPEWVILIGVCTHLGCVPIANAGDFGGYYCPCHGSHYDASGRIRLGPAPLNLEVPTYEFTSDDMVIVG [UQCRFS1] | 0.119 | -1.93 | -2.28 | 55.6 | 55.5 | -0.113 |
| MLTKFETKSARVKGLSFHPKRPWILTSLHNGVIQLWDYRMCTLIDKFDEHDGPVRGIDFHKQQPLFVSGGDDYKIKVWNYKLRRCLFTLLGHLDYIRTTFFHHEYPWILSASDDQTIRVWNWQSRTCVCVLTGHNHYVMCAQFHPTEDLVVSASLDQTVRVWDISGLRKKNLSPGAVESDVRGITGVDLFGTTDAVVKHVLEGHDRGVNWAAFHPTMPLIVSGADDRQVKIWRMNESKAWEVDTCRGHYNNVSCAVFHPRQELILSNSEDKSIRVWDMSKRTGVQTFRRDHDRFWVLAAHPNLNLFAAGHDGGMIVFKLERERPAYAVHGNMLHYVKDRFLRQLDFNSSKDVAVMQLRSGSKFPVFNMSYNPAENAVLLCTRASNLENSTYDLYTIPKDADSQNPDAPEGKRSSGLTAVWVARNRFAVLDRMHSLLIKNLKNEITKKVQVPNCDEIFYAGTGNLLLRDADSITLFDVQQKRTLASVKISKVKYVIWSADMSHVALLAKHAIVICNRKLDALCNIHENIRVKSGAWDESGVFIYTTSNHIKYAVTTGDHGIIRTLDLPIYVTRVKGNNVYCLDRECRPRVLTIDPTEFKFKLALINRKYDEVLHMVRNAKLVGQSIIAYLQKKGYPEVALHFVKDEKTRFSLALECGNIEIALEAAKALDDKNCWEKLGEVALLQGNHQIVEMCYQRTKNFDKLSFLYLITGNLEKLRKMMKIAEIRKDMSGHYQNALYLGDVSERVRILKNCGQKSLAYLTAATHGLDEEAESLKETFDPEKETIPDIDPNAKLLQPPAPIMPLDTNWPLLTVSKGFFEGTIASKGKGGALAADIDIDTVGTEGWGEDAELQLDEDGFVEATEGLGDDALGKGQEEGGGWDVEEDLELPPELDISPGAAGGAEDGFFVPPTKGTSPTQIWCNNSQLPVDHILAGSFETAMRLLHDQVGVIQFGPYKQLFLQTYARGRTTYQALPCLPSMYGYPNRNWKDAGLKNGVPAVGLKLNDLIQRLQLCYQLTTVGKFEEAVEKFRSILLSVPLLVVDNKQEIAEAQQLITICREYIVGLSVETERKKLPKETLEQQKRICEMAAYFTHSNLQPVHMILVLRTALNLFFKLKNFKTAATFARRLLELGPKPEVAQQTRKILSACEKNPTDAYQLNYDMHNPFDICAASYRPIYRGKPVEKCPLSGACYSPEFKGQICRVTTVTEIGKDVIGLRISPLQFR [COPA] | -0.365 | -0.819 | -0.346 | 51 | 50.3 | -0.16 |
| MLVHLFRVGIRGGPFPGRLLPPLRFQTFSAVRNTWRNGKTGQLHKAEGEYSDGYRSSSLLRAVAHLRSQLWAHLPRAPLAPRWSPSAWCWVGGALLGPMVLSKHPHLCLVALCEAEEAPPASSTPHVVGSRFNWKLFWQFLHPHLLVLGVAVVLALGAALVNVQIPLLLGQLVEVVAKYTRDHVGSFMTESQNLSTHLLILYGVQGLLTFGYLVLLSHVGERMAVDMRRALFSSLLRQDITFFDANKTGQLVSRLTTDVQEFKSSFKLVISQGLRSCTQVAGCLVSLSMLSTRLTLLLMVATPALMGVGTLMGSGLRKLSRQCQEQIARAMGVADEALGNVRTVRAFAMEQREEERYGAELEACRCRAEELGRGIALFQGLSNIAFNCMVLGTLFIGGSLVAGQQLTGGDLMSFLVASQTVQRSMANLSVLFGQVVRGLSAGARVFEYMALNPCIPLSGGCCVPKEQLRGSVTFQNVCFSYPCRPGFEVLKDFTLTLPPGKIVALVGQSGGGKTTVASLLERFYDPTAGVVMLDGRDLRTLDPSWLRGQVVGFISQEPVLFGTTIMENIRFGKLEASDEEVYTAAREANAHEFITSFPEGYNTVVGERGTTLSGGQKQRLAIARALIKQPTVLILDEATSALDAESERVVQEALDRASAGRTVLVIAHRLSTVRGAHCIVVMADGRVWEAGTHEELLKKGGLYAELIRRQALDAPRTAAPPPKKPEGPRSHQHKS [ABCB8] | -0.36 | 0.49 | -0.355 | 51.1 |  | 0.155 |
| MLVLFETSVGYAIFKVLNEKKLQEVDSLWKEFETPEKANKIVKLKHFEKFQDTAEALAAFTALMEGKINKQLKKVLKKIVKEAHEPLAVADAKLGGVIKEKLNLSCIHSPVVNELMRGIRSQMDGLIPGVEPREMAAMCLGLAHSLSRYRLKFSADKVDTMIVQAISLLDDLDKELNNYIMRCREWYGWHFPELGKIISDNLTYCKCLQKVGDRKNYASAKLSELLPEEVEAEVKAAAEISMGTEVSEEDICNILHLCTQVIEISEYRTQLYEYLQNRMMAIAPNVTVMVGELVGARLIAHAGSLLNLAKHAASTVQILGAEKALFRALKSRRDTPKYGLIYHASLVGQTSPKHKGKISRMLAAKTVLAIRYDAFGEDSSSAMGVENRAKLEARLRTLEDRGIRKISGTGKALAKTEKYEHKSEVKTYDPSGDSTLPTCSKKRKIEQVDKEDEITEKKAKKAKIKVKVEEEEEEKVAEEEETSVKKKKKRGKKKHIKEEPLSEEEPCTSTAIASPEKKKKKKKKRENED [NOP58] | -1.64 | -0.671 | -1.23 | 52.5 | 51.5 | 1.07 |
| MLWSGCRRFGARLGCLPGGLRVLVQTGHRSLTSCIDPSMGLNEEQKEFQKVAFDFAAREMAPNMAEWDQKELFPVDVMRKAAQLGFGGVYIQTDVGGSGLSRLDTSVIFEALATGCTSTTAYISIHNMCAWMIDSFGNEEQRHKFCPPLCTMEKFASYCLTEPGSGSDAASLLTSAKKQGDHYILNGSKAFISGAGESDIYVVMCRTGGPGPKGISCIVVEKGTPGLSFGKKEKKVGWNSQPTRAVIFEDCAVPVANRIGSEGQGFLIAVRGLNGGRINIASCSLGAAHASVILTRDHLNVRKQFGEPLASNQYLQFTLADMATRLVAARLMVRNAAVALQEERKDAVALCSMAKLFATDECFAICNQALQMHGGYGYLKDYAVQQYVRDSRVHQILEGSNEVMRILISRSLLQE [ACAD8] | -0.0509 | -0.89 | -3.82 | 54.9 | 55.2 | -0.0672 |
| MMAIRELKVCLLGDTGVGKSSIVCRFVQDHFDHNISPTIGASFMTKTVPCGNELHKFLIWDTAGQERFHSLAPMYYRGSAAAVIVYDITKQDSFYTLKKWVKELKEHGPENIVMAIAGNKCDLSDIREVPLKDAKEYAESIGAIVVETSAKNAINIEELFQGISRQIPPLDPHENGNNGTIKVEKPTMQASRRCC [RAB31] | -0.166 | -1.38 | -0.537 | 54.6 | 53.9 | 0.0123 |
| MMCEVMPTISEAEGPPGGGGGHGSGSPSQPDADSHFEQLMVSMLEERDRLLDTLRETQETLALTQGKLHEVGHERDSLQRQLNTALPQEFAALTKELNVCREQLLEREEEIAELKAERNNTRLLLEHLECLVSRHERSLRMTVVKRQAQSPAGVSSEVEVLKALKSLFEHHKALDEKVRERLRVALERCSLLEEELGATHKELMILKEQNNQKKTLTDGVLDINHEQENTPSTSGKRSSDGSLSHEEDLAKVIELQEIISKQSREQSQMKERLASLSSHVTELEEDLDTARKDLIKSEEMNTKLQRDVREAMAQKEDMEERITTLEKRYLAAQREATSVHDLNDKLENEIANKDSMHRQTEDKNRQLQERLELAEQKLQQTLRKAETLPEVEAELAQRVAALSKAEERHGNIEERLRQMEAQLEEKNQELQRARQREKMNEEHNKRLSDTVDKLLSESNERLQLHLKERMAALEDKNSLLREVESAKKQLEETQHDKDQLVLNIEALRAELDHMRLRGASLHHGRPHLGSVPDFRFPMADGHTDSYSTSAVLRRPQKGRLAALRDEPSKVQTLNEQDWERAQQASVLANVAQAFESDADVSDGEDDRDTLLSSVDLLSPSGQADAHTLAMMLQEQLDAINKEIRLIQEEKENTEQRAEEIESRVGSGSLDNLGRFRSMSSIPPYPASSLASSSPPGSGRSTPRRIPHSPAREVDRLGVMTLLPPSREEVRDDKTTIKCETSPPSSPRALRLDRLHKGALHTVSHEDIRDIRNSTGSQDGPVSNPSSSNSSQDSLHKAPKKKGIKSSIGRLFGKKEKGRPGQTGKEALGQAGVSETDNSSQDALGLSKLGGQAEKNRKLQKKHELLEEARRQGLPFAQWDGPTVVVWLELWVGMPAWYVAACRANVKSGAIMSALSDTEIQREIGISNPLHRLKLRLAIQEIMSLTSPSAPPTSRTTLAYGDMNHEWIGNEWLPSLGLPQYRSYFMECLVDARMLDHLTKKDLRGQLKMVDSFHRNSFQCGIMCLRRLNYDRKELERKREESQSEIKDVLVWSNDRVIRWILSIGLKEYANNLIESGVHGALLALDETFDFSALALLLQIPTQNTQARAVLEREFNNLLVMGTDRRFDEDDDKSFRRAPSWRKKFRPKDIRGLAAGSAETLPANFRVTSSMSSPSMQPKKMQMDGNVSGTQRLDSATVRTYSC [PPFIA1] | 0.137 | 1.52 | 1.91 | 49.8 | 50.2 | -0.0196 |
